Experimental findings from FireProtDB (doi:10.1021/bi00212a026) are described below.

For the data set the following is noted: Bacillus amyloliquefaciens; pH 6.3; 25 °C; Urea; Fluorescence; MES 50 mM; NaCl 0.15 M; reversible: yes; whole UniProt chain shown.

B1: Ribonuclease wild type, P00648 (protein)
chain: MMKMEGIALKKRLSWISVCLLVLVSAAGMLFSTAAKTETSSHKAHTEAQVINTFDGVADYLQTYHKLPDNYITKSEAQALGWVASKGNLADVAPGKSIGGDIFSNREGKLPGKSGRTWREADINYTSGFRNSDRILYSSDWLIYKTTDHYQTFTKIR
For the protein B1, the denaturant m value came out at 1.92 kcal/mol/M, the “denaturant midpoint (higher = more stable)” value was determined as 4.58 M and the unfolding free energy amounted to 8.79 kcal/mol.
